{
  "source": "patent US10654893B2",
  "about": "“Self-assembling peptide compositions” (3-D MATRIX, LTD., priority 2014, dated 2020)",
  "assay_type_in_all_cases": "physicochemical",
  "key": {"[1]": {"experiment": "Time sweep test of gelation after adding DMEM or saline buffer", "procedure": "FIG. 25 includes 1.5% IEIK13 (SEQ ID NO:3) data at pH 2.3, 2.6, 2.9 and 3.2. Time sweep tests were performed at 1 rad/sec and at 1 Pa with 20 mm plates and 500 μm gap distance. During time sweep tests, DMEM was added into the chamber surrounding the measuring plates to soak the peptides at time=0.\nTime sweep tests were performed at 1 rad/sec and at 1 Pa with 20 mm plates and 500 μm gap distance. During time sweep tests, the saline buffer was added into the chamber surrounding the measuring plates to soak the peptides at time=0."}, "[2]": {"experiment": "Vial inversion test of 0.5% RADA16 gels with CaCl2", "procedure": "FIGS. 41A-41D depict the protocol used to follow peptide dissolution and to assess effects of particular anions and/or cations, and/or their concentration, on certain RADA16 (SEQ ID NO:1) compositions. As shown, peptide powder in a vial was dissolved in deionized water with vortexing and sonication. The particular peptide composition utilized in this Example was a 1% composition of RADA16 (SEQ ID NO:1) that was mixed at a 1:1 ratio with a 2× salt solution to obtain a final concentration of 0.5% RADA16 (SEQ ID NO:1) and the desired molar concentration of salt.\nThe protocol depicted in FIGS. 41A-41D was followed to prepare 0.5% solutions of RADA16 (SEQ ID NO:1) with different concentrations of CaCl2. Mixed solutions were allowed to sit for a relaxation period of about 24 hours. Vials were then inverted upside down so that gel properties could be assessed."}, "[3]": {"experiment": "Rheometer stress sweep test of peptide compositions at selected concentrations (AR500, 40 mm plates)", "conditions": "37° C.; for Loss Modulus (G″) / Storage Modulus (G′): at 1 Pa of oscillation stress, 10 rad/s; for Max. Viscosity (max η′): maximum in range of measured stress; for Yield Stress: stress sweep 10 rad/s", "procedure": "The present Example further describes measurement of various rheological properties of certain peptide compositions at selected concentrations using a rheometer (AR500, TA Instruments) with 40 mm plates. A peptide composition (700 μL) was placed on the rheometer plate and excess composition was gently removed by Kimwipes. Measurements were performed after 2 minutes of relaxation time at 37° C. Storage modulus, loss modulus, and viscosity (η′) were measured at 37° C. with the plates placed at a measuring geometry gap of 300 μm, and stress sweep tests were performed at 0.1 Pa˜1000 Pa of oscillation stress with angular frequency at 10 rad/s.\nResults are shown in FIGS. 2-4 for RADA16 (SEQ ID NO:1), IEIK13 (SEQ ID NO:3), and KLD12 (SEQ ID NO:2)."}, "[4]": {"experiment": "Rheological properties at selected ionic strengths (DHR-1, 20 mm plates)", "text": "FIGS. 27-29 show rheological properties measured with a rheometer (DHR-1, TA Instruments) with 20 mm plates when ion strengths are slightly lower than the critical ion strengths. Ion strengths of RADA16 (SEQ ID NO:1), KLD12 (SEQ ID NO:2) and IEIK13 (SEQ ID NO:3) were 0.7 M, 0.2 M and 0.02M, respectively for the measurements. Rheological properties of RADA16 (SEQ ID NO:1), KLD12 (SEQ ID NO:2) and IEIK13 (SEQ ID NO:3) compositions were higher after adjusting their ionic strength levels with NaCl to 0.7 M (RADA16 (SEQ ID NO:1)), 0.2 M (KLD12 (SEQ ID NO:2)) or 0.02 M (IEIK13 (SEQ ID NO:3)).\nRheological properties of peptide compositions at selected ionic strengths were measured using a rheometer (DHR-1, TA Instruments) with 20 mm plates. […] Results are shown in FIG. 30 for RADA16 (SEQ ID NO:1) and in FIG. 31 for IEIK13 (SEQ ID NO:3).\nViscosities of peptide compositions at selected ionic strength levels were evaluated. […] Viscosities of 1% IEIK13 (SEQ ID NO:3) compositions were evaluated using a rheometer (DHR-1, TA Instruments) with 20 mm plates. The results are shown in FIGS. 32A and 32B for IEIK13 (SEQ ID NO:3)."}, "[5]": {"experiment": "Formulation chart: concentration for desired storage modulus from linear trendline equations", "conditions": "linear trendline equation", "text": "In some embodiments, peptide compositions with a specific desired stiffness may be formulated to have a particular peptide concentration determined using a mathematical model (i.e., the modulus trend-line equation). A formulation chart of peptide compositions may relate their concentrations in deionized water to their specific storage moduli, for example as is presented below in Table 3A. From such a chart, one skilled in the art may formulate a peptide composition with desired rheological properties by selecting a particular peptide and an appropriate peptide concentration so that the formulated composition has a desired stiffness."}},
  "data": [
    {"substance": "Arg-Ala-Asp-Ala-Arg-Ala-Asp-Ala-Arg-Ala-Asp-Ala-Arg-Ala-Asp-Ala [RADA16]", "values": [
      {"measurement": "Gelation on exposure to saline buffer", "setting": "[1]; saline buffer, 0.15 M NaCl", "value": "no or negligible gelation"},
      {"measurement": "Storage modulus response (gelation kinetics)", "setting": "[1]; with pH adjustment, time sweep with DMEM (FIGS. 24 and 25)", "value": "immediate storage modulus increase"},
      {"measurement": "Time without storage modulus increase", "setting": "[1]; without pH adjustment (pH 2.2), time sweep with DMEM (FIG. 24)", "value": 13, "unit": "s"},
      {"measurement": "Gel functionality on vial inversion", "setting": "[2]; 0.250 M CaCl2", "value": "fully functional gel"},
      {"measurement": "Gel functionality on vial inversion", "setting": "[2]; 0.500 M CaCl2", "value": "semi-functional gel"},
      {"measurement": "Gel functionality on vial inversion", "setting": "[2]; 1M CaCl2", "value": "non-functional gel"},
      {"measurement": "Loss Modulus (G″)", "setting": "[3]; Conc. 1%", "value": 12, "unit": "Pa"},
      {"measurement": "Storage Modulus (G′)", "setting": "[3]; Conc. 1%", "value": 74, "unit": "Pa"},
      {"measurement": "Max. Viscosity (max η′)", "setting": "[3]; Conc. 1%", "value": 2.3, "unit": "Pa · s"},
      {"measurement": "Yield Stress", "setting": "[3]; Conc. 1%", "value": 15.9, "unit": "Pa"},
      {"measurement": "Loss Modulus (G″)", "setting": "[3]; Conc. 1.5%", "value": 30, "unit": "Pa"},
      {"measurement": "Storage Modulus (G′)", "setting": "[3]; Conc. 1.5%", "value": 158, "unit": "Pa"},
      {"measurement": "Max. Viscosity (max η′)", "setting": "[3]; Conc. 1.5%", "value": 3.4, "unit": "Pa · s"},
      {"measurement": "Yield Stress", "setting": "[3]; Conc. 1.5%", "value": 20.0, "unit": "Pa"},
      {"measurement": "Loss Modulus (G″)", "setting": "[3]; Conc. 2%", "value": 39, "unit": "Pa"},
      {"measurement": "Storage Modulus (G′)", "setting": "[3]; Conc. 2%", "value": 217, "unit": "Pa"},
      {"measurement": "Max. Viscosity (max η′)", "setting": "[3]; Conc. 2%", "value": 4.0, "unit": "Pa · s"},
      {"measurement": "Yield Stress", "setting": "[3]; Conc. 2%", "value": 31.6, "unit": "Pa"},
      {"measurement": "Loss Modulus (G″)", "setting": "[3]; Conc. 2.5%", "value": 53, "unit": "Pa"},
      {"measurement": "Storage Modulus (G′)", "setting": "[3]; Conc. 2.5%", "value": 352, "unit": "Pa"},
      {"measurement": "Max. Viscosity (max η′)", "setting": "[3]; Conc. 2.5%", "value": 5.6, "unit": "Pa · s"},
      {"measurement": "Yield Stress", "setting": "[3]; Conc. 2.5%", "value": 50.1, "unit": "Pa"},
      {"measurement": "Rheological properties as a function of ionic strength", "setting": "[4]; 1% compositions, NaCl, decreased at higher ionic strength", "value": "increased with ionic strength adjustment up to 0.7 M"},
      {"measurement": "Rheological properties after adjusting ionic strength with NaCl", "setting": "[4]; NaCl 0.7 M (RADA16), 0.2 M (KLD12), 0.02 M (IEIK13), 1%", "value": "higher"},
      {"measurement": "Rheological properties with NaCl versus KCl and CaCl2", "setting": "[4]; RADA16 compositions with salts", "value": "slightly higher"},
      {"measurement": "Peptide concentration with deionized water to obtain desired storage modulus", "setting": "[5]; storage modulus 25 Pa", "value": 0.8},
      {"measurement": "Peptide concentration with deionized water to obtain desired storage modulus", "setting": "[5]; storage modulus 50 Pa", "value": 0.9},
      {"measurement": "Peptide concentration with deionized water to obtain desired storage modulus", "setting": "[5]; storage modulus 75 Pa", "value": 1.0},
      {"measurement": "Peptide concentration with deionized water to obtain desired storage modulus", "setting": "[5]; storage modulus 100 Pa", "value": 1.2},
      {"measurement": "Peptide concentration with deionized water to obtain desired storage modulus", "setting": "[5]; storage modulus 125 Pa", "value": 1.3},
      {"measurement": "Peptide concentration with deionized water to obtain desired storage modulus", "setting": "[5]; storage modulus 150 Pa", "value": 1.5},
      {"measurement": "Peptide concentration with deionized water to obtain desired storage modulus", "setting": "[5]; storage modulus 175 Pa", "value": 1.6},
      {"measurement": "Peptide concentration with deionized water to obtain desired storage modulus", "setting": "[5]; storage modulus 200 Pa", "value": 1.7},
      {"measurement": "Peptide concentration with deionized water to obtain desired storage modulus", "setting": "[5]; storage modulus 225 Pa", "value": 1.9},
      {"measurement": "Peptide concentration with deionized water to obtain desired storage modulus", "setting": "[5]; storage modulus 250 Pa", "value": 2.0},
      {"measurement": "Peptide concentration with deionized water to obtain desired storage modulus", "setting": "[5]; storage modulus 275 Pa", "value": 2.2},
      {"measurement": "Peptide concentration with deionized water to obtain desired storage modulus", "setting": "[5]; storage modulus 300 Pa", "value": 2.3},
      {"measurement": "Peptide concentration with deionized water to obtain desired storage modulus", "setting": "[5]; storage modulus 325 Pa", "value": 2.4},
      {"measurement": "Peptide concentration with deionized water to obtain desired storage modulus", "setting": "[5]; storage modulus 350 Pa", "value": 2.6},
      {"measurement": "Peptide concentration with deionized water to obtain desired storage modulus", "setting": "[5]; storage modulus 375 Pa", "value": 2.7},
      {"measurement": "Peptide concentration with deionized water to obtain desired storage modulus", "setting": "[5]; storage modulus 400 Pa", "value": 2.9},
      {"measurement": "Peptide concentration with deionized water to obtain desired storage modulus", "setting": "[5]; storage modulus 425 Pa", "value": 3.0},
      {"measurement": "Peptide concentration with deionized water to obtain desired storage modulus", "setting": "[5]; storage modulus 500 Pa", "value": 3.4},
      {"measurement": "Peptide concentration with deionized water to obtain desired storage modulus", "setting": "[5]; storage modulus 600 Pa", "value": 4.0},
      {"measurement": "Peptide concentration with deionized water to obtain desired storage modulus", "setting": "[5]; storage modulus 700 Pa", "value": 4.5},
      {"measurement": "Peptide concentration with deionized water to obtain desired storage modulus", "setting": "[5]; storage modulus 800 Pa", "value": 5.1}
    ]}
  ]
}
